The results in this text go back to publication doi:10.1101/2025.02.04.636395, “Identification of a RAB32-LRMDA-Commander membrane trafficking complex reveals the molecular mechanism of human oculocutaneous albinism type 7” (bioRxiv, 2025).

The target of this experiment is T1, recombinant LRMDA (human, UniProt A0A087WWI0 1-226).
T1 construct: synthetic gene codon-optimised for S. frugiperda; also called tag-less LRMDA; purified LRMDA; source: Sf21 insect cells (baculovirus), purified (HaloLink resin, TEV cleavage); not shown: HaloTag, N-terminal, cleaved
T1 sequence (looked up): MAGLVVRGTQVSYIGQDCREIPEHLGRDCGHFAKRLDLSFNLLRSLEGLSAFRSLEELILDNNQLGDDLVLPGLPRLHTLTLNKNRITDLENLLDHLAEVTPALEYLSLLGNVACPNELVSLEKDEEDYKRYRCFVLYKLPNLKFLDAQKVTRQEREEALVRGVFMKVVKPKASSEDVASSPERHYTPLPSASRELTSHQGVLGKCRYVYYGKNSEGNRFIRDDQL
The experiment can be described thus: pull-down; Retriever (0.5 µM, His-tagged VPS29) held on TALON resin; 1 µM LRMDA and/or 1 µM RAB32 added; 50 mM HEPES pH 7.2, 150 mM NaCl, 2 mM β-mercaptoethanol, 0.1% Triton X-100; 45 min at 4 °C; washes with 10 mM imidazole; LRMDA binding slightly increased in the presence of RAB32. To be noted: both partners purified.

B1: recombinant RAB32 (natural protein, human, UniProt Q13637 1-225, looked up)
chain: MAGGGAGDPGLGAAAAPAPETREHLFKVLVIGELGVGKTSIIKRYVHQLFSQHYRATIGVDFALKVLNWDSRTLVRLQLWDIAGQERFGNMTRVYYKEAVGAFVVFDISRSSTFEAVLKWKSDLDSKVHLPNGSPIPAVLLANKCDQNKDSSQSPSQVDQFCKEHGFAGWFETSAKDNINIEEAARFLVEKILVNHQSFPNEENDVDKIKLDQETLRAENKSQCC
notes: RAB32, human; synthetic gene codon-optimised for S. frugiperda; also called tag-less RAB32; purified RAB32; source: Sf21 insect cells (baculovirus), purified (Glutathione Sepharose, TEV cleavage); not shown: GST, N-terminal, cleaved
In the case of B1, the binding result was “binds”.
